From patent publication US6030783, “Photo-potentiation of cisplatin chemotherapy” (Massachusetts Institute of Technology)

Tests used:
[1] = tested on: HMG1; conditions: [Pt(en)Cl2]; photo-cross-linking efficiency about half that of cis-DDP probe
[2] = biological target: T1, HMG domain B (of HMG1) (UniProt P63159 P63159:86-165); assay: EMSA; 10-40 equiv protein; conditions: tags: expressed from pHB1 in E. coli BL21(DE3); label: 5'-32P
[3] = biological target: T1, HMG domain B (of HMG1); assay: EMSA; 10-40 equiv protein; about 50% shifted at 1 uM DNA with 1.5 equiv (Example 5); also photo-cross-links at 302 nm via Lys-6; 10 mM Tris pH 7.5, 10 mM MgCl2, 50 mM KCl; conditions: tags: expressed from pHB1 in E. coli BL21(DE3); label: 5'-32P
Description: Reaction mixtures (10 µL total volume) were prepared containing 10 mM Tris-HCl, pH 7.5, 4% (v/v) glycerol, 10 mM MgCl2, 50 mM KCl, 1 mM EDTA and 0.05% (v/v) Nonidet P-40. HMG domain B [expressed and purified from pHB1/*Escherichia coli* BL21 (DE3) (Chow et al. (1995) *Biochemistry* 33: 15124–30)] was added, and the solution was incubated for 30 min on ice to allow protein-DNA binding. For binding of the 123- and 82-bp probes to HMG1, 0.2 µg of BSA/mL, 2 µg of competitor chicken erythrocyte DNA, and 300 ng of HMG1 were included in the reaction mixtures. To induce photo-cross-linking of the protein—DNA complexes, the reaction mixtures contained in open microcentrifuge tubes were placed on ice and irradiated from about for 1–2 h at a distance of 4 cm from a transilluminator (Ultra-Violet Products, TM-15) equipped with one of several different lamps, with primary spectral outputs of 254, 302, or 365 nm. The light intensity, 2.6–2.9 J m^-2 s^-1, was measured with a UVX radiometer (Ultra-Violet Products). Following irradiation, the reaction mixtures were combined with 5 µL of gel-loading solution [10 M urea, 1.5 mM EDTA, 0.05% (w/v) bromophenol blue and xylene cyanol]. The DNA was denatured by heating at 90° C. for 4 min and then analyzed by denaturing PAGE. The denaturing 8% polyacrylamide gel was run to determine photo-crosslinking of HMG1 to globally platinated 123-bp probes. […]

T1 sequence (P63159 86-165, one chain of several): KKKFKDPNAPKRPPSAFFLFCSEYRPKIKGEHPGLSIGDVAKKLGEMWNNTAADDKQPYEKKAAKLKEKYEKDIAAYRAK

[Pt(en)Cl2]-modified DNA was tested, and the binding signal (fraction of cis-DDP probe) [1] was 0.5.

CCTCTCTGGTTCTTC (ssDNA, single cis-[Pt(NH3)2{d(GpG)-N7(1),-N7(2)}] intrastrand cross-link at GG) [15Pt single strand]: no binding [2].

B1: 15Pt/15B cisplatin-modified 15-bp duplex (dsDNA)
DNA 1: CCTCTCTGGTTCTTC
DNA 2: GAAGAACCAGAGAGG
modifications: single cis-[Pt(NH3)2{d(GpG)-N7(1),-N7(2)}] intrastrand cross-link at GG
B1: binds [3].
